Experimental data reported in article PMC7592630 (FASEB journal : official publication of the Federation of …, 2019).

Target: the molecule itself
Experiment: sucrose gradient velocity sedimentation

B1: C213Y Prph2 (natural protein, UniProt P15499 1-346, looked up)
chain: MALLKVKFDQKKRVKLAQGLWLMNWLSVLAGIVLFSLGLFLKIELRKRSEVMNNSESHFVPNSLIGVGVLSCVFNSLAGKICYDALDPAKYAKWKPWLKPYLAVCIFFNVILFLVALCCFLLRGSLESTLAYGLKNGMKYYRDTDTPGRCFMKKTIDMLQIEFKCCGNNGFRDWFEIQWISNRYLDFSSKEVKDRIKSNVDGRYLVDGVPFSYCNPSSPRPCIQYQLTNNSAHYSYDHQTEELNLWLRGCRAALLNYYSSLMNSMGVVTLLVWLFEVSITAGLRYLHTALESVSNPEDPECESEGWLLEKSVPETWKAFLESFKKLGKSNQVEAEGADAGPAPEAG
modifications: N-linked glycan (the paper shows that the mutant is glycosylated; Asn229 is the site in Prph2)
- stoichiometry N: 4
